According to IntAct's records for PubMed 26586190:

B1: Sestrin-2 (Homo sapiens), P58004 (parent)
chain: MIVADSECRAELKDYLRFAPGGVGDSGPGEEQRESRARRGPRGPSAFIPVEEVLREGAESLEQHLGLEALMSSGRVDNLAVVMGLHPDYFTSFWRLHYLLLHTDGPLASSWRHYIAIMAAARHQCSYLVGSHMAEFLQTGGDPEWLLGLHRAPEKLRKLSEINKLLAHRPWLITKEHIQALLKTGEHTWSLAELIQALVLLTHCHSLSSFVFGCGILPEGDADGSPAPQAPTPPSEQSSPPSRDPLNNSGGFESARDVEALMERMQQLQESLLRDEGTSQEEMESRFELEKSESLLVTPSADILEPSPHPDMLCFVEDPTFGYEDFTRRGAQAPPTFRAQDYTWEDHGYSLIQRLYPEGGQLLDEKFQAAYSLTYNTIAMHSGVDTSVLRRAIWNYIHCVFGIRYDDYDYGEVNQLLERNLKVYIKTVACYPEKTTRRMYNLFWRHFRHSEKVHVNLLLLEARMQAALLYALRAITRYMT
partner: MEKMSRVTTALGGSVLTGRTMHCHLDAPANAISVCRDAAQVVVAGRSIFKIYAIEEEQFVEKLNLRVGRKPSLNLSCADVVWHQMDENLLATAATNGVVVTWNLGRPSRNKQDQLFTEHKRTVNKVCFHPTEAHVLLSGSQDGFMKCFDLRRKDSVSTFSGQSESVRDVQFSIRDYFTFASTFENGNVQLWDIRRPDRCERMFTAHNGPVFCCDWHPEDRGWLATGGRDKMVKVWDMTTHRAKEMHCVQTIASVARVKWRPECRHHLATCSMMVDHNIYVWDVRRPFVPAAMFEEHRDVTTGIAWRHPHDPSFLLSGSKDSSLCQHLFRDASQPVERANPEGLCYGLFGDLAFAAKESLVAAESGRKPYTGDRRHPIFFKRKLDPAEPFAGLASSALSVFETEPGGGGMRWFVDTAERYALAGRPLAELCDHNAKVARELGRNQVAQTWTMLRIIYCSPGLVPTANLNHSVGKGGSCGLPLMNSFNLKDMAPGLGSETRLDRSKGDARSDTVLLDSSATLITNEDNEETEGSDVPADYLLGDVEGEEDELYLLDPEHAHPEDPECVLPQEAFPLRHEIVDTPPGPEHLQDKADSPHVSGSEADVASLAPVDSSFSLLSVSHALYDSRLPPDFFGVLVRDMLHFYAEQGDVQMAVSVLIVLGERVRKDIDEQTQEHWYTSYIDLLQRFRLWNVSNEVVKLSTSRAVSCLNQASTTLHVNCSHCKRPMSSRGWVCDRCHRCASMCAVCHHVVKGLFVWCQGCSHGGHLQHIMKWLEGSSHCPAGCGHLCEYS

Variants of: B1
Settings: with wdr24_human WDR24, Q96S15

effect of a mutation on the interaction	Variant
disrupting interaction strength	D406A;D407A
